Source: patent US7294496B1, “Cloned human lysophospholipase” (The Regents of the University of California, priority 2000, dated 2007)

Experiments:
Type in all cases: biochemical
[1] = PLA2 activity assay toward DPPC; settings: for Activity: 100 mM Hepes
Protocol: (§1) The protein concentration was determined by the Bio-Rad protein assay, using bovine serum albumin (BSA) as standard. Protein purity was examined using 12% SDS-PAGE and Coomassie blue staining. LysoPLA activity was measured at 40° C. in the assay buier containing LysoPC, 100 mM Tris-HCl (pH 8.0) and 10 mM LMe. Cold 1-palmitoyl-sn-glycero-3-phosphorylcholine (125 μM, unless indicated otherwise) was mixed with 1-[14 C]palmitoyl-sn-glycero-3-phosphorylcholine (100,000 cpm) in a total volume of 0.5 ml. The assay was initiated by adding an aliquot of enzyme solution to the substrate mixture and incubating for the desired time. The released fatty acid was extracted by the modified Dole method and then quantified by scintillation counting. The PLA2 activity assay was carried out, using various ^14C-labeled phospholipid substrates under various conditions as given in the text. The rat brain iPLA2 was purified as described elsewhere (H. C. Yang et al., manuscript in preparation incorporated herein). Human recombinant cPLA2 was a gift from Drs. J. D. Sharp and R. M. Kramer at Lilly Laboratories. 1-[^14C]Palmitoyl-sn-glycero-3-phosphorylcholine and 1-palmitoyl-2-[1-^14C]palmitoyl-sn-glycerol-3-phosphorylcholine were purchased from Amersham. 1-Palmitoyl-2-[1-^14C]arachidonoyl-sn-glycerol-3-phosphorylcholine was purchased from DuPont-NEN. All unlabeled phospholipids were purchased from Avanti Polar Lipids. Triton X-100 (TX-100) and PIP2 were obtained from CalBiochem.
(§2) When we first purified the mouse LysoPLA from P388D1 cells, no other enzymatic activities (PLA1, PLA2, acyltransferase, transacylase and esterase) were found. Therefore, it appears to be a LysoPL-specific LysoPLA. Similar results were obtained for the rat LysoPLA and the relative rates towards different LysoPL substrates were reported [Sugimoto et al., (1996) J. Biol. Chem. 271, 7705-11]. However, a recently sequenced rabbit enzyme that shares high sequence homology (approx. 97%) to the rat/mouse LysoPLA was reported to have both PLA2 and LysoPLA activities [Portilla, et al., […] J. Am. Soc.Nephrol. 9, 1178-86]. The specific activities, however, were only 10 nmol/min/mg for PLA2 activity and 20 nmol/min/mg for LysoPLA activity. The PLA2 activity was also reported to be selective for PlsCho substrate with arachidonic acid at the sn2 position. To determine whether hLysoPLA also expresses PLA2 activity, we have explored its ability to hydrolyze arachidonic acid labeled PlsCho as well as other phospholipid substrates under a variety of conditions.

[2] = PLA2 activity assay toward plasmenylcholine
Protocol: as §1
The sn-2 labeled PlsCho (plasmenylcholine or 1-O— (Z)-1P-alkenyl-2-arachidonoyl-sn-glycero-3-phosphocholine) was synthesized as follows. A total of 4 μmol [1-14C]arachidonic acid (from NEN, with specific activity […]) was diluted 10 times with cold arachidonic acid in 250 μl distilled methylene chloride (Fisher Scientific). To this 0.04 mmol p(N,N-dimethyl)amino pyridine (Aldrich) and 0.08 mmol 1,3-dicyclohexyl carbodiimide (Aldrich) were added to yield the arachidonoyl anhydride upon 1 h of stirring. Lysoplasmenylcholine (0.06 mmol, from Serdary) dissolved in 200 μl methylene chloride and 50 μl pyridine (Fisher Scienticc) was added to the arachidonoyl anhydride solution with 0.03 μmol dimethylaminopyridine and left stirring for 8 h. The reaction progress was monitored by thin layer chromatography (Merck) using a mobile phase of chloroform:methanol:triethyl amine:water (65:30:1.5:3.5), and retardation factors were 0.6 and 0.2 for PlsCho and LysoPlsCho, respectively. The separation of the product was carried out by preparative layer chromatography (Merck) in the above mobile system. The reaction yielded a total of 3.6 mg (7.7 μmol) of radiolabeled PlsCho (specific activity 0.18 μCi/μmol) by quantitative phosphate analysis.
as §2

[3] = PLA2 activity assay toward PAPC; settings: for Activity: 100 mM Hepes, pH 7.5, 80 μM Ca2+, 2 mM DTT, 0.1 mg/ml BSA
Protocol: as §1, §2

[4] = LysoPLA activity assay (release of fatty acid from 14C-LysoPC)
Protocol: as §1
To investigate the catalytic properties of the hLy-soPLA, we first determined the specific activity of hLysoPLA as a function of substrate (1-palmitoyl LysoPC) concentration. […] There seems to be some cooperativity, since the data fit to the Hill equation (solid line in FIG. 3) with n=1.53 ? 0.08, kcat=1.34 ? 0.04 μmol/min/mg, and substrate at half-maximal saturation is 12.7±0.9 μM.
TX-100 is often used in the purification and stabilization of membrane-associated proteins. In addition, it is used to change the surface concentration of the substrate in the mixed-micelle assay for mechanistic studies. To determine the dependence of the enzyme activity on the substrate surface concentration, we measured the hLysoPLA activity under two conditions:
(1) the bulk LysoPC concentration (1.125 mM) was kept constant and the TX-100 concentration was varied (FIG. 4A);
(2) the bulk TX-100 concentration (1 mM) was kept constant and the LysoPC concentration was varied (FIG. 4B).
In addition, we have carried out detailed kinetic measurements and analysis to test the surface dilution kinetic model and results are shown in FIG. 4° C. The experimental data were fitted globally to Eq. 1 derived from the model in which hLysoPLA follows the two-step binding kinetics (Scheme 1). That is, hLysoPLA (E) binds first to the mixed-micellar surface (S) and then to the LysoPC substrate (A) presented on the surface.
[formula] [formula] Here, [LysoPC+TX-100] is the total molar concentration in the bulk solution, and {LysoPC®} is the molar fraction of the substrate on the mixed-micellar surface. Calculation of the amount of TX-100 in the micelle takes into account the amount of monomeric detergent in the solution, assuming the critical micelle concentration of TX-100 is 0.25 mM. The fitting parameter Ks represents the dissociation constant (k31/k1) for the mixed-micellar surface, Km represents the apparent Michaelis constant (=(k3+ k32)/k2) on the surface, and Vmax is the catalytic turnover rate.

[5] = Hill equation fit, pure LysoPC (FIG. 3)
[6] = global fit to surface dilution model, LysoPC/TX-100 mixed micelles

B1: hLysoPLA: recombinant human brain lysophospholipase, single 25 kDa polypeptide of 230 amino acids (SEQ ID NO: 2), catalytic triad Ser-119, Asp-174, His-208 (protein, listed as Homo sapiens)
chain: MCGNNMSTPLPAIVPAARKATAAVIFLHGLGDTGHGWAEAFAGIRSSHIKYICPHAPVRPVTLNMNVAMPSWFDIIGLSPDSQEDESGIKQAAENIKALIDQEVKNGIPSNRIILGGFSQGGALSLYTALTTQQKLAGVTALSCWLPLRASLPQGPIGGANRDISILQCHGDCDPLVPLMFGSLTVEKLKTLVNPANVTFKTYEGMMHSSCQQEMMDVKQFIDKLLPPID
[1]; DPPC substrates
  PLA2 activity toward phosphatidylcholine substrates (in words): no PLA2 activity was found
[1]; DPPC/POPS sonicated vesicles (67 μM:33 μM), pH 7.5, 5 mM EDTA or Ca2+, 1 mg/ml BSA
  Activity: <0.0001 µmol/min/mg
[1]; DPPC/TX-100 mixed micelles (100 μM:400 μM), pH 7.5, 2 mM DTT, 5 mM EDTA
  Activity: <0.0001 µmol/min/mg
[2]; PisCho sonicated vesicles (100 μM), 100 mM Tris, pH 8.0, 4 mM EGTA, 10 mM βMe
  Activity: 0.0009 ± 0.0003 µmol/min/mg
[2]; PisCho sonicated vesicles (100 μM), 100 mM Tris, pH 8.0, 150 mM NaCl, 3 mM MgCl2, 10 mM βMe
  Activity: 0.0006 ± 0.0002 µmol/min/mg
[2]; PisCho/TX-100 mixed micelles (100 μM:600 μM), 100 mM Hepes, pH 7.5, 10 mM βMe
  Activity: 0.0024 ± 0.0004 µmol/min/mg
[2]; mixed micelles or vesicles
  activity toward PlsCho substrate labeled with [14C]arachidonic acid (in words): did not show any significant activity
[3]; PAPC substrates
  PLA2 activity toward phosphatidylcholine substrates (in words): no PLA2 activity was found
[3]; PAPC/PIP2/TX-100 mixed micelles (97 μM:3 μM:400 μM)
  Activity: <0.0001 µmol/min/mg
[3]; PAPC/TX-100 mixed micelles (100 μM:400 μM)
  Activity: <0.0001 µmol/min/mg
[4]; Hill equation fit, activity vs 1-palmitoyl LysoPC concentration, 40° C. (FIG. 3)
  Hill coefficient n: 1.53
[4]; [5]
  kcat: 1.34 µmol/min/mg
  substrate at half-maximal saturation: 12.7 ± 0.9 µM
[4]; LysoPC micelles (125 μM), 100 mM Tris, pH 8.0, 10 mM βMe
  Activity: 1.13 ± 0.03 µmol/min/mg
[4]; Michaelis-Menten fit, LysoPC 1.125 mM constant, TX-100 varied (FIG. 4A)
  kcat: 1.6 µmol/min/mg
[4]; Michaelis-Menten fit, TX-100 1 mM constant, LysoPC varied (FIG. 4B)
  kcat: 1.7 µmol/min/mg
[4]; [6]
  Km (apparent Michaelis constant on the surface): 12.2±0.9 mol %
  Ks (dissociation constant for the mixed-micellar surface): 66 ± 7 µM
[4]; global fit to surface dilution model, LysoPC/TX-100 mixed micelles (FIG. 4C)
  Vmax: 1.37 ± 0.05 µmol/min/mg
[4]; purified recombinant enzyme, His-Tag removed
  specific activity toward palmitoyl LysoPC: about 1.3 μmol/min/mg
